Experimental data reported in patent US20130171156.
Numbering of substitutions follows the chain as printed.

B1: “converted” BMP-1-3 protein (protein)
chain: AATSRPERVWPDGVIPFVIGGNFTGSQRAVFRQAMRHWEKHTCVTFLERTDEDSYIVFTYRPCGCCSYVGRRGGGPQAISIGKNCDKFGIVVHELGHVVGFWHEHTRPDRDRHVSIVRENIQPGQEYNFLKMEPQEVESLGETYDFDSIMHYARNTFSRGIFLDTIVPKYEVNGVKPPIGQRTRLSKGDIAQARKLYKCPACGETLQDSTGNFSSPEYPNGYSAHMHCVWRISVTPGEKIILNFTSLDLYRSRLCWYDYVEVRDGFWRKAPLRGRFCGSKLPEPIVSTDSRLWVEFRSSSNWVGKGFFAVYEAICGGDVKKDYGHIQSPNYPDDYRPSKVCIWRIQVSEGFHVGLTFQSFEIERHDSCAYDYLEVRDGHSESSTLIGRYCGYEKPDDIKSTSSRLWLKFVSDGSINKAGFAVNFFKEVDECSRPNRGGCEQRCLNTLGSYKCSCDPGYELAPDKRRCEAACGGFLTKLNGSITSPGWPKEYPPNKNCIWQLVAPTQYRISLQFDFFETEGNDVCKYDFVEVRSGLTADSKLHGKFCGSEKPEVITSQYNNMRVEFKSDNTVSKKGFKAHFFSDKDECSKDNGGCQQDCVNTFGSYECQCRSGFVLHDNKHDCKEAGCDHKVTSTSGTITSPNWPDKYPSKKECTWAISSTPGHRVKLTFMEMDIESQPECAYDHLEVFDGRDAKAPVLGRFCGSKKPEPVLATGSRMFLRFYSDNSVQRKGFQASHATECGGQVRADVKTKDLYSHAQFGDNNYPGGVDCEWVIVAEEGYGVELVFQTFEVEEETDCGYDYMELFDGYDSTAPRLGRYCGSGPPEEVYSAGDSVLVKFHSDDTITKKGFHLRYTSTKFQDTLHSRK
B2: placental BMP-1-3 protein (protein)
chain: B1 chain with L373Q

Protein | in vitro processing (enzyme activity) (type IV collagen) | in vitro processing (enzyme activity) (calmodulin, P0DP23)
B1 | which properties were not exhibited with the “converted” BMP-1-3 protein | which properties were not exhibited with the “converted” BMP-1-3 protein
B2 | processed calmodulin and type IV collagen | processed calmodulin and type IV collagen
